Laboratory results published in US20260062456A1 (ALPINE IMMUNE SCIENCES, published 2026).

T1: human TIGIT stably expressed on Jurkat/IL-2 reporter cells (Jurkat/TIGIT cells) (human, UniProt Q495A1 22-244)
T1 sequence: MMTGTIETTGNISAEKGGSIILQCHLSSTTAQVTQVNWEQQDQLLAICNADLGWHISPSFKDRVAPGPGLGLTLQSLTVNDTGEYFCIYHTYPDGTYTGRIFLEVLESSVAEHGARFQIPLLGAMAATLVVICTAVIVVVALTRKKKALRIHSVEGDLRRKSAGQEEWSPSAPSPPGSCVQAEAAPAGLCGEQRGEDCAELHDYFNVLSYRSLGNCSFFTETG

T2: CD96 (UniProt P40200 22-585, limits assumed)
T2 sequence (looked up): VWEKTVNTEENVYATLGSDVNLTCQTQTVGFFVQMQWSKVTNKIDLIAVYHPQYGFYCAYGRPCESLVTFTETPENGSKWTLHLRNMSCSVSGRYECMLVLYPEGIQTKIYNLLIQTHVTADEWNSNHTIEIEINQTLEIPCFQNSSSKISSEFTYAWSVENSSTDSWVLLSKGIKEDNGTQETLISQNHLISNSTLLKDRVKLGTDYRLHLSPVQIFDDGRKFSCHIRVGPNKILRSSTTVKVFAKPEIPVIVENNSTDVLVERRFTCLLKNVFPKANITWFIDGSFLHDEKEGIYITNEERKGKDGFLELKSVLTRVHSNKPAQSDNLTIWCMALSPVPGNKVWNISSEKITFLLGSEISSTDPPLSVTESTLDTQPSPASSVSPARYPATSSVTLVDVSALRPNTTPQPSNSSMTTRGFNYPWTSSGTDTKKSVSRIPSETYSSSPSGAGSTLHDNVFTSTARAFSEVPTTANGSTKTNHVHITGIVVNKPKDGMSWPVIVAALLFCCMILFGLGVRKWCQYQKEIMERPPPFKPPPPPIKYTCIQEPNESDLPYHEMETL


Legend:
[1] = target: CD28 (UniProt P10747 19-220); assay: flow cytometry, HEK293 cells transfected with CD28
[2] = target: T1, human TIGIT stably expressed on …; assay: flow cytometry, Jurkat/TIGIT cells, 20 nM
[3] = target: human PD-1 stably expressed on Jurkat/IL-2 reporter cells (Jurkat/PD-1 cells) (human, UniProt Q15116 21-288); assay: flow cytometry, Jurkat/PD-1 cells, 20 nM
Sequence of human PD-1 stably expressed on Jurkat/IL-2 reporter cells (Jurkat/PD-1 cells) (Q15116 21-288): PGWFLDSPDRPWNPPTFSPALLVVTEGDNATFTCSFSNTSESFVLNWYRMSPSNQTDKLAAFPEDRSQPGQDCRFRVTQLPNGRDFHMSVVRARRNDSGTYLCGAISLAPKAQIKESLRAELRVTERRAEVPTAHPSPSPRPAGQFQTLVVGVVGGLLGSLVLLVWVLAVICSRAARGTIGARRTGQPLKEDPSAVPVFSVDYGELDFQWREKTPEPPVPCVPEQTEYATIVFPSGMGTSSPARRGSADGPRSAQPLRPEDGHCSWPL

[4] = target: T2, CD96; assay: flow cytometry, cells expressing CD96

Row | Binder | MFI at 66.6 nM [1] | MFI at 20 nM [2] | MFI at 20 nM [3] | MFI at 25 nM [4]
1 | WT CD80 ECD Fc (Fc fusion, not shown: a dimerising Fc or GST) VIHVTKEVKEVATLSCGHNVSVEELAQTRIYWQKEKKMVLTMMSGDMNIWPEYKNRTIFDITNNLSIVILALRPSDEGTYECVVLKYEKDAFKREHLAEVTLSVKADFPTPSISDFEIPTSNIRRIICSTSGGFPEPHLSWLENGEELNAINTTVSQDPETELYAVSSKLDFNMTTNHSFMCLIKYGHLRVNQTFNWNTTKQEHFPDN | 3070 MFI | – | – | –
2 | PD-L1/CD155 Stack 3 (Fc fusion) WPPPGTGDVVVQAPTQVSGFLGDSVTLPCYLQVPNMEVTHVSQLTWARHGESGSMAVFHQTQGPWYAESKRLEFVAARLGAELRNASLRMFGLRVEDEGNYTCQFVTFPQRSRSVDIWLRVLGGGGSGGGGSGGGGSFTVTVPKDLYVVEYGSNMTIECKFPVEKQLDLAALIVYWEMEGKDIIQFVHGEEDQKAQHSSYRQRARLLKDQLSLGNAALQITDVKLQDAGVYRCMISYGGGADYKRITVKVNAGGGGSGGGGSEPKSSDKTHTCPPCPAPEAEGAPSVFLFPPKPKDTLMISRTPEVTCVVVDVSHEDPEVKFNWYVDGVEVHNAKTKPREEQYNSTYRVVSVLTVLHQDWLNGKEYKCKVSNKALPAPIEKTISKAKGQPREPQVYTLPPSRDELTKNQVSLTCLVKGFYPSDIAVEWESNGQPENNYKTTPPVLDSDGSFFLYSKLTVDKSRWQQGNVFSCSVMHEALHNHYTQKSLSLSPGK | – | 81800 MFI | 47300 MFI | –
3 | CD112-IgV (Fc fusion, not shown: a dimerising Fc or GST) QDVRVQVLPEVRGQLGGTVELPCHLLPPVPGLYISLVTWQRPDAPANHQNVAAFHPKMGPSFPSPKPGSERLSFVSAKQSTGQDTEAELQDATLALHGLTVEDEGNYTCEFATFPKGSVRGMTWLRV | – | – | – | 1170 MFI

Second part, the binder after the results:

Row | MFI at 66.6 nM [1] | MFI at 20 nM [2] | MFI at 20 nM [3] | MFI at 25 nM [4] | Binder
4 | – | 36500 MFI | 69800 MFI | – | PD-L1/CD155 Stack 2 (Fc fusion) FTVTVPKDLYVVEYGSNMTIECKFPVEKQLDLAALIVYWEMEGKDIIQFVHGEEDQKAQHSSYRQRARLLKDQLSLGNAALQITDVKLQDAGVYRCMISYGGGADYKRITVKVNAGGGGSGGGGSEPKSSDKTHTCPPCPAPEAEGAPSVFLFPPKPKDTLMISRTPEVTCVVVDVSHEDPEVKFNWYVDGVEVHNAKTKPREEQYNSTYRVVSVLTVLHQDWLNGKEYKCKVSNKALPAPIEKTISKAKGQPREPQVYTLPPSRDELTKNQVSLTCLVKGFYPSDIAVEWESNGQPENNYKTTPPVLDSDGSFFLYSKLTVDKSRWQQGNVFSCSVMHEALHNHYTQKSLSLSPGKGGGGSGGGGSGGGGSWPPPGTGDVVVQAPTQVSGFLGDSVTLPCYLQVPNMEVTHVSQLTWARHGESGSMAVFHQTQGPWYAESKRLEFVAARLGAELRNASLRMFGLRVEDEGNYTCQFVTFPQRSRSVDIWLRVL
5 | – | 60500 MFI | 78000 MFI | – | PD-L1/CD155 Stack 4 (Fc fusion) FTVTVPKDLYVVEYGSNMTIECKFPVEKQLDLAALIVYWEMEGKDIIQFVHGEEDQKAQHSSYRQRARLLKDQLSLGNAALQITDVKLQDAGVYRCMISYGGGADYKRITVKVNAGGGGSGGGGSGGGGSWPPPGTGDVVVQAPTQVSGFLGDSVTLPCYLQVPNMEVTHVSQLTWARHGESGSMAVFHQTQGPWYAESKRLEFVAARLGAELRNASLRMFGLRVEDEGNYTCQFVTFPQRSRSVDIWLRVLGGGGSGGGGSEPKSSDKTHTCPPCPAPEAEGAPSVFLFPPKPKDTLMISRTPEVTCVVVDVSHEDPEVKFNWYVDGVEVHNAKTKPREEQYNSTYRVVSVLTVLHQDWLNGKEYKCKVSNKALPAPIEKTISKAKGQPREPQVYTLPPSRDELTKNQVSLTCLVKGFYPSDIAVEWESNGQPENNYKTTPPVLDSDGSFFLYSKLTVDKSRWQQGNVFSCSVMHEALHNHYTQKSLSLSPGK
